Key:
[1] = target: FcεRI-bound human IgE (IgE loaded on CHO 3D10 cells expressing the FcεRI alpha chain) (human) (UniProt P01854); assay: FACS on IgE-loaded CHO 3D10 cells (FIG. 4), arithmetic/linear scale
[2] = target: FcεRI-bound human IgE (IgE loaded on CHO 3D10 cells expressing the FcεRI alpha chain) (human) (UniProt P01854); assay: FACS on IgE-loaded CHO 3D10 cells (FIG. 4); called nonspecific by the filing

Sequence of FcεRI-bound human IgE (IgE loaded on CHO 3D10 cells expressing the FcεRI alpha chain) (human) (P01854 whole entry, chain 1 of 2): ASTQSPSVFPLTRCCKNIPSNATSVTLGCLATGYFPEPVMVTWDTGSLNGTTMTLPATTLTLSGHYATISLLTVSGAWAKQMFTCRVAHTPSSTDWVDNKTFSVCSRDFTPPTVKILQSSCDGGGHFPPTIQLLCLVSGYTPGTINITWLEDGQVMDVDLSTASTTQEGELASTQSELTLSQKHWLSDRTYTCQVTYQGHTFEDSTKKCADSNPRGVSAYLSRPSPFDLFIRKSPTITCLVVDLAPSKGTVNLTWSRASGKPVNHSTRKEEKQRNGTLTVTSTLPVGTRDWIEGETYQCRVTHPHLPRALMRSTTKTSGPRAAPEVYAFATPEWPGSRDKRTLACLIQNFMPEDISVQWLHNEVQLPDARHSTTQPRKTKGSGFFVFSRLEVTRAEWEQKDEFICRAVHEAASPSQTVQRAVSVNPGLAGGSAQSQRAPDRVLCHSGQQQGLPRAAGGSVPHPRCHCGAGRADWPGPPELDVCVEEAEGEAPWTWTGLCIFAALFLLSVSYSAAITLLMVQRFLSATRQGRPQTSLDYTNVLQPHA
Sequence of FcεRI-bound human IgE (IgE loaded on CHO 3D10 cells expressing the FcεRI alpha chain) (human) (P12319 26-257, chain 2 of 2, further chain): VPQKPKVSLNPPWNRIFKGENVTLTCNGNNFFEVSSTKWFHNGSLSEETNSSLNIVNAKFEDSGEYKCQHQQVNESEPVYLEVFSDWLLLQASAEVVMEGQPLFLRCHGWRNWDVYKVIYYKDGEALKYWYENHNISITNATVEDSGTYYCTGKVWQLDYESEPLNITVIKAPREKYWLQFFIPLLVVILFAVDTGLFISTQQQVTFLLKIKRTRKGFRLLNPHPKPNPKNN

Work on MOPC21 (antibody) yielded a mean channel fluorescence at 0.1 µg/ml [1] of 7.3 and a nonspecific background binding (percent) [2] of 10%.
